Assay results reported in US20210275695A1 (CASE WESTERN RESERVE UNIVERSITY, published 2021).
Bridges are numbered along the chain shown (N, C = ends). Where no end group is shown, it is not given here. Side-chain parts run from the residue outwards. maleimide = maleimide group that reacts with the cysteine thiol to conjugate the peptide to the carrier (horseradish peroxidase); Gd(HP-DO3A) (azide, via triazole) = azido-Gd(HP-DO3A) gadolinium chelate, click-linked through a triazole; sulfo‑Cy5 = sulfo-cyanine 5 fluorescent label; HRP = horseradish peroxidase; PEG3 = NCCOCCOCCOCCC(=O)O

Key:
[1] = biological target: T1, EDB fragment (extradomain B of fibronectin), expressed in E. coli with an N-terminal 10xHis tag (UniProt P02751 1266-1356); assay: ELISA, HRP-conjugated peptide on EDB protein
T1 construct: domain: EDB; also called EDB protein; purified EDB; not shown: N-terminal 10xHis tag from the pQE-T7-1 vector

[2] = biological target: T2, EDA (extradomain A of fibronectin) (UniProt P02751 1722-1811, limits assumed); assay: ELISA, HRP-conjugated peptide
T2 construct: domain: EDA

[3] = biological target: T1, EDB fragment (extradomain B of …); assay: SPR (Biacore T100), EDB protein immobilised on a CM5 chip, Scatchard plot
Method: The ZD2 peptide sequence, TVRTSAD (SEQ ID NO: 1), was synthesized in solid phase using Fmoc chemistry. A short spacer, Fmoc-9-amino-4,7-dioxanonanoic acid (Fmoc-NH-PEG₂-CH₂CH₂COOH), and 5-hexynoic acid, were also sequentially conjugated in solid phase followed by trifluoroacetic acid (TFA) treatment, which yielded ZD2-PEG-propargyl. Azido-Gd(HP-DO3A) was synthesized as reported previously. Click chemistry reaction between ZD2-PEG-propargyl (1 Eq) and azido-Gd(HP-DO3A) (1.1 Eq) was performed in a 2:1 mixture of t-butanol and water under nitrogen following addition of [Cu(MeCN)₄]PF₆ (0.02 Eq) and TBTA (Tris[(1-benzyl-1H-1,2,3-triazol-4-yl)methyl]amine, 0.02 Eq). The final product, named ZD2-Gd(HP-DO3A), was purified by high performance liquid chromatography (HPLC) on an Agilent 1100 HPLC system equipped with a semi-preparative C18 column. […] The Gd(III) content was measured by inductively coupled plasma optical emission spectroscopy (ICP-OES Optima 3100XL, Perkin-Elmer, Norwalk, Conn.). […] Sensorgrams generated from the binding between contrast agents and EDB were recorded with Biacore T100 (GE healthcare, Waukesha, Wis.), and analyzed using Scatchard plot. Affinity was calculated by fitting data into a linear line, with the slope of the line representing −1/Kd.

[4] = biological target: extradomain-B fibronectin (EDB-FN), human, as secreted or deposited by human cancer cells and in human tumour tissue (human) (UniProt P02751); assay: histogram of Cy5 pixel intensities of ZD2-Cy5 staining (5 µM) of a human prostate tumor section, GS=7
[5] = biological target: extradomain-B fibronectin (EDB-FN), human, as secreted or deposited by human cancer cells and in human tumour tissue (human) (UniProt P02751); assay: histogram of Cy5 pixel intensities of ZD2-Cy5 staining (5 µM) of a human prostate BPH section, tissue with low EDB-FN
[6] = biological target: extradomain-B fibronectin (EDB-FN), human, as secreted or deposited by human cancer cells and in human tumour tissue (human) (UniProt P02751); assay: histogram of Cy5 pixel intensities of ZD2-Cy5 staining (5 µM) of a human prostate tumor section, GS=9
[7] = biological target: T1, EDB fragment (extradomain B of …); assay: phage display, four rounds of panning on immobilised purified EDB fragment
Method: The Ph.D C7C library (New England Biolabs, Beverly, Mass., USA) was used for screen EDB specific nonapeptides. Candidate peptides were selected by carrying out panning procedures for 4 rounds. In each round, purified EDB fragment (100 μg/ml) was immobilized on non-treated 96-well plates (Corning Costar, Tewksbury, Mass., USA) with overnight coating at 4° C. 0.5% BSA was used to block non-specific binding (1 hr, room temperature) followed by incubating with phages for 1 hr at room temperature. Extensive washing with PBST (0.1%, 0.3%, 0.5% […], respectively, for round 1-3) was used to remove non-binding phages before eluting bound phages by 0.1M Glycine-HC (pH 2.2) and neutralizing with Tris-HCl (pH 9.1). Eluted phages are tittered and amplified with E. coli (ER2758) according to the user's manual. Amplified phages in medium were purified by ultrafiltration and PEG/NaCl precipitation. At the end of round 4, properly diluted phages were cultured on LB/IPTG/Xgal plates and DNA from 29 randomly picked blue plaques were used for sequencing with supplied primers (New England Biolabs). Peptide sequences were resulted from translating of corresponding DNA sequences.
The Ph.D C7C library (New England Biolabs, Beverly, Mass.) was used to screen for EDB-specific cyclic nonapeptides. Candidate peptides were selected by panning for four rounds. […]

T1 sequence (P02751 1266-1356): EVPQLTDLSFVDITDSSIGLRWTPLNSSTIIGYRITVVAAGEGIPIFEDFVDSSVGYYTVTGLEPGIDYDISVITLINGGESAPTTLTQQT
Sequence of extradomain-B fibronectin (EDB-FN), human, as secreted or deposited by human cancer cells and in human tumour tissue (human) (P02751 32-2477): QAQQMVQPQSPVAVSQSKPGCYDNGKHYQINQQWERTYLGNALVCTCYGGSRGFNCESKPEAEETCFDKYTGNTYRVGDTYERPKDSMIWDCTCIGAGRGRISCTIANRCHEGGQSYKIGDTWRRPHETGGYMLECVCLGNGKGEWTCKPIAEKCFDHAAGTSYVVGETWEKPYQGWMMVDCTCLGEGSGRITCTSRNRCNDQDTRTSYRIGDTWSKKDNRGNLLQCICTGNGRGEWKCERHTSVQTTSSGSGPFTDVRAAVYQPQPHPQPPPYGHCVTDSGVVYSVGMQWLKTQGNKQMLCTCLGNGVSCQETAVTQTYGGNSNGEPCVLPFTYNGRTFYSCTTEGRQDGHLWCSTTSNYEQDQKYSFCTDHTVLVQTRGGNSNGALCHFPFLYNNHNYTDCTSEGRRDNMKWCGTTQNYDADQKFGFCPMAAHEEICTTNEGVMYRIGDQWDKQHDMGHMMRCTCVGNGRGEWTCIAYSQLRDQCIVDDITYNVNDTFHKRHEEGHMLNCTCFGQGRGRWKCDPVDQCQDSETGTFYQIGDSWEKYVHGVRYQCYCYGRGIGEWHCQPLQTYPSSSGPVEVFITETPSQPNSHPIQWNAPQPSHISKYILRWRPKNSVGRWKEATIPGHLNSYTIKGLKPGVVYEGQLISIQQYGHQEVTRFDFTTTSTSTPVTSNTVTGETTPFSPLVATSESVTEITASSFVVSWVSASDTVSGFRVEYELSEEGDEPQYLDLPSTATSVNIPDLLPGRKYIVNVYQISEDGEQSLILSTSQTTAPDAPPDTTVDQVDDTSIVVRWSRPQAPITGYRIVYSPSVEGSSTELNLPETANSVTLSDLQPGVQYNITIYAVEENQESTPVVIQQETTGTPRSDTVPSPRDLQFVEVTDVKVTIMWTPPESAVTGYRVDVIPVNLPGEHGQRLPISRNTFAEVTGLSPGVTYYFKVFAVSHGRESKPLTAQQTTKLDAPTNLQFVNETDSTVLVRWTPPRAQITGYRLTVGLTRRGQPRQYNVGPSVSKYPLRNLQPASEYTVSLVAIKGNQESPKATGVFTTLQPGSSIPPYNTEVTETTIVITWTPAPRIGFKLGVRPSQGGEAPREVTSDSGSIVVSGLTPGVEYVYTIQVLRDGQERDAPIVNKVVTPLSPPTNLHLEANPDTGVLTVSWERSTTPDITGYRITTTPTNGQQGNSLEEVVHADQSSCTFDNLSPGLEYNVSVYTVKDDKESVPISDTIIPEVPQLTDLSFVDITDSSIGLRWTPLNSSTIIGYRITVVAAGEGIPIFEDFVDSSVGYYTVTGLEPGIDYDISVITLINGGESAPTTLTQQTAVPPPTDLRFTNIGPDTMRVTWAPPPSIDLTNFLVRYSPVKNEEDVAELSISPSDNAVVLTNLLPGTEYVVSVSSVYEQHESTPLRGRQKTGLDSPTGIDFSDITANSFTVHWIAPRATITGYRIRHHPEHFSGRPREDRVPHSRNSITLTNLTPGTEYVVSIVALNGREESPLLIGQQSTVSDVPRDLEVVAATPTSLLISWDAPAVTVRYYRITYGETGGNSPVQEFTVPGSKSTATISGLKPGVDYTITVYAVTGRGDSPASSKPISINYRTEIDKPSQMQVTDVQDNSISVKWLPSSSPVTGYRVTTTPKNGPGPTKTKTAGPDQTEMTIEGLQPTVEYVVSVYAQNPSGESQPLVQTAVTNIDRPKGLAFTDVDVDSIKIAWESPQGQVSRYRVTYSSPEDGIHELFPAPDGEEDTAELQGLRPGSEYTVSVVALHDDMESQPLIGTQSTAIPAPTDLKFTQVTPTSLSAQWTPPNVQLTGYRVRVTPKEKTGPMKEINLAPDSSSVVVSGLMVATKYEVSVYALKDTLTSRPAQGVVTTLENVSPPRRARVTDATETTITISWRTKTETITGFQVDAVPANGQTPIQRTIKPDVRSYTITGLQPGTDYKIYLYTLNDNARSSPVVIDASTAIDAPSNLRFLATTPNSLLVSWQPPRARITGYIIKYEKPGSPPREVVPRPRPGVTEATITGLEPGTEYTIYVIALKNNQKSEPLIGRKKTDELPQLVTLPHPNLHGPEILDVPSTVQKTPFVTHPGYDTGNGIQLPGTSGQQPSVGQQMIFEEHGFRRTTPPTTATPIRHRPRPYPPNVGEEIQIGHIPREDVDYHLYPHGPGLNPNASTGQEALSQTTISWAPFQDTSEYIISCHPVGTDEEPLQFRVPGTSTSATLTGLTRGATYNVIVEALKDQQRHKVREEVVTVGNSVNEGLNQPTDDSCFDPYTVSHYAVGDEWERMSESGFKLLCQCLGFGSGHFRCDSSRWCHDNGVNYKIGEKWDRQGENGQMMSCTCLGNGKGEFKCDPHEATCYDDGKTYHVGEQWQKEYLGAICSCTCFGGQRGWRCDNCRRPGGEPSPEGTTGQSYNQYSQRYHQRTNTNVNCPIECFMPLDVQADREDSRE
T2 sequence (P02751 1722-1811 limits assumed): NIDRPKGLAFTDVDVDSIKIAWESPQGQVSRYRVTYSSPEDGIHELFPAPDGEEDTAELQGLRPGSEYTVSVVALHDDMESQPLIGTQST

CERAK (also: conjugated to HRP, 'similarly' to l-ZD2-HRP, Control peptide) [CERAK-HRP]
binding result [1]: no binding

H-TVRTSADC([maleimide-HRP])-OH
binding result [2]: no binding

{Gd(HP-DO3A) (azide, via triazole)-5‑hexynoic acid-9‑amino‑4,7‑dioxanonanoic acid}-TVRTSAD (also: Gd complex, also called ZD2-Gd(DO3A)) [ZD2-Gd(HP-DO3A) (linear ZD2 peptide TVRTSAD joined through PEG and a triazole to Gd(HP-DO3A))]
Kd [3]: 1700 nM

{sulfo‑Cy5-PEG3}-CTVRTSADC-OH (disulfide 1-9) [ZD2-Cy5 (cyclic ZD2 peptide … labelled with Cy5 through a short PEG linker)]
percent pixel counts of Cy5 pixel value 50 to 255 [4]: 40% | percent pixel counts of Cy5 pixel value 50 to 255 [5]: 2.1% | percent pixel counts of Cy5 pixel value 50 to 255 [6]: 72.2%

CTVRTSADC (disulfide 1-9 (inferred); not fully specified, also called cyclic nonapeptide ZD2) [cyclic ZD2 peptide (CTVRTSADC) as selected by phage display]
binding result [7]: binds
